Reference: US20220056091A1
Positions count from the first letter of the chain named. In names and notes the source's numbering stands.

T1: Fc fused human IL-18BP isoform a (IL-18BPa) (human), O95998
T1 chain: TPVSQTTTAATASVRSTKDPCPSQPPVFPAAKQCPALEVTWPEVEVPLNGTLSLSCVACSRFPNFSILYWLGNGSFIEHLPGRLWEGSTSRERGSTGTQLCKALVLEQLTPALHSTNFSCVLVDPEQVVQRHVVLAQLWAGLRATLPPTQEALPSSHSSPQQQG

B1: Modified IL-18 polypeptide of SEQ ID NO: 2 (E06K, K53A, S55A), Q14116 37-193 (ligand)
chain: YFGKLKSKLSVIRNLNDQVLFIDQGNRPLFEDMTDSDCRDNAPRTIFIISMYADAQPRGMAVTISVKCEKISTLSCENKIISFKEMNPPDNIKDTKSDIIFFQRSVPGHDNKMQFESSSYEGYFLACEKERDLFKLILKKEDELGDRSIMFTVQNED
B2: Modified IL-18 polypeptide of SEQ ID NO: 17 (E06K, K53A, S55A, C38S, C68S, C76S, C127S, K70C), Q14116 37-193 (ligand)
chain: B1 chain with C38S, C68S, K70C, C76S, C127S
B3: Modified IL-18 polypeptide of SEQ ID NO: 3 (Y01G, F02A, E06K, M51G, K53A, D54A, S55A, T63A), Q14116 37-193 (ligand)
chain: B1 chain with Y1G, F2A, M51G, D54A, T63A

Molecular target: T1, Fc fused human IL-18BP isoform a …
Assay: SPR, Fc-IL-18BPa captured, 1:1 model
Conditions: remark: other sources report otherwise

| Binder | Kd [nM] | koff [s⁻¹] | kon [M⁻¹ s⁻¹] |
| --- | --- | --- | --- |
| B1 | 323 | 0.0154 | 47800 |
| B2 | 1000 |  |  |
| B3 | > 1000 |  |  |
